Test results taken from the DeepSol protein solubility set.

assay: soluble on expression in E. coli; label from the status in PepcDB or PDB records

Row | Sequence | soluble on expression in E. coli
1 | MLRKDIGIDLGTANTLVFLRGKGIVVNEPSVIAIDSTTGEILKVGLEAKNMIGKTPATIKAIRPMRDGVIADYTVALVMLRYFINKAKGGMNLFKPRVVIGVPIGITDVERRAILDAGLEAGASKVFLIEEPMAAAIGSNLNVEEPSGNMVVDIGGGTTEVAVISLGSIVTWESIRIAGDEMDEAIVQYVRETYRVAIGERTAERVKIEIGNVFPSKENDELETTVSGIDLSTGLPRKLTLKGGEVREALRSVVVAIVESVRTTLEKTPPELVSDIIERGIFLTGGGSLLRGLDTLLQKETGISVIRSEEPLTAVAKGAGMVLDKVNILKKLQGAGGSHHHHHH | soluble
2 | MAHHHHHHMCSVLILASTCRRRFSNVHLTPAGTVLNSNSALISRRINRRKMKNCNNNDLLKVLKMETTYNELPAHNLLMSSKNDINKLFDYINKNEELSKLMNSCGTYVYLKYLGVVIFSIKENVQISHLSEFIQYLLNKNVFGSSTFTKIRKSKDSDTYNAPFIICLVLIVRVCLSPFLNNILYCHMQNEIITFIIFKPTKKSVHCFFSFFTILL | soluble
3 | MAPPVLKNEDSDLAVREPAAKKSKKSNGKAQAVKSESSESMFMTEATTDENIYPDATFQSYEEFDQKFNVWKAKNLHPFRVASSESLRTEDGSISEKFKYRYVVFHCARYGVPRMRGEGKRPNQNYLPCSCTAMIRLNFQFHEQCLRLTSLETRHSNHTICKDLYEKMCVKEEKRKHVTPRRTMSGPKSRSSSVATAGNADTSLISDRSINVKKEPSEERADSEHSHGQSPVDLHYEVTRPYEVSPSAPISEITTPFVLPTQKVGLNDLVPTSQFSPMDYQSLQNQIILNQVKLNAMTNNVYNPFGNWPASSLVPTPAPPFLTPTPSQVSPALSSSVDENEAPKIFHSLEAVRPIPLRPSQNSAFYQMLNSSSTSPIIAVTKAEVDSVLGAASRLLNDNHLPEDVLHSRVKQLNGLISQWTHS | not soluble
4 | MSLSGKPITDQQIRLYVNERKQGQTQLAASAKSGLSERSGRRIDSGELNTEPTPKRQWRTRKDPLAEVWSSVLVPMLEANPELLPLTLFEYLHDNYPNQYDNTVLRTLQRRVKAWKVKHGPAKEVMFRQTKVPGRLGLSDFTLLKGVTITILGQVFCHLLYHYRLAFSGWTYAKVICGGESYTALSTGLQNALWRSGGAPLEHRTDSLSAAFNNLAEKEQMTVRYDALCHHYQLKGSRNNPGKSHENGTIEAAHGHLKRRMTQALLLRGDTDFTSLEAYQAFVDGIVTKINQQCRTRFEQERPLLQTLPKRRTHDYAEHSVLISSSSSFDLKRVTYTVPSRFIGERLYVQLYDERLDLFSGHEQIMSLPRVYATTTQRGRSVDYRHVIDSLVKKPGAFRYSQLRDDLLPTPDYHRIWQYVDGTLNPHDACRYIVRLLHLAATAQCQDSLGRYVLKSIEGGELPSNLQCNKRFSTDTAVIPLITAKQHLLADYDQLLCVEVQHGEGHHHHHH | not soluble
5 | MSLSDINNMAYGISDMLGSIDNLAMFDLVVPHFRGKENECLFGMFGRATTTLQGGKIAKHVQEIFAETLTAHLHKLEPGEEPSEALRRTFLWGDRKAFEFFSGKLQLEKERKPSWTSFASFDSMFRGWTPGVNSVLRTGASGAVVYLVDKVLHVGSIGDTLVVLSRKGDAELLSKRHDPTDREESARIRKAEAWVSTKGFVNDDKDLDISRAFGYWHECPAVNAAPEIRTRRLQESDEFVIIGNHALWQFCSYQTAVDIARTERDDPMIAAQKLRDFAISYGAEGNVMVMVVNVSDLFLGKEGHHHHHH | not soluble
6 | MTKNKMEAKIDELINNDPVWSSQNESLISKPYNHILLKPGKNFRLNLIVQINRVMNLPKDQLAIVSQIVELLHNSSLLIDDIEDNAPLRRGQTTSHLIFGVPSTINTANYMYFRAMQLVSQLTTKEPLYHNLITIFNEELINLHRGQGLDIYWRDFLPEIIPTQEMYLNMVMNKTGGLFRLTLRLMEALSPSSHHGHSLVPFINLLGIIYQIRDDYLNLKDFQMSSEKGFAEDITEGKLSFPIVHALNFTKTKGQTEQHNEILRILLLRTSDKDIKLKLIQILEFDTNSLAYTKNFINQLVNMIKNDNENKYLPDLASHSDTATNLHDELLYIIDHLSEL | soluble
